IntAct's records for PubMed 29039417

B1: BBSome complex member BBS2 (Homo sapiens), Q9BXC9 (parent)
chain: MLLPVFTLKLRHKISPRMVAIGRYDGTHPCLAAATQTGKVFIHNPHTRNQHVSASRVFQSPLESDVSLLSINQAVSCLTAGVLNPELGYDALLVGTQTNLLAYDVYNNSDLFYREVADGANAIVLGTLGDISSPLAIIGGNCALQGFNHEGSDLFWTVTGDNVNSLALCDFDGDGKKELLVGSEDFDIRVFKEDEIVAEMTETEIVTSLCPMYGSRFGYALSNGTVGVYDKTSRYWRIKSKNHAMSIHAFDLNSDGVNELITGWSNGKVDARSDRTGEVIFKDNFSSAIAGVVEGDYRMDGHIQLICCSVDGEIRGYLPGTAEMRGNLMDTSAEQDLIRELSQKKQNLLLELRNYEENAKAELASPLNEADGHRGIIPANTRLHTTLSVSLGNETQTAHTELRISTSNDTIIRAVLIFAEGIFTGESHVVHPSIHNLSSSICIPIVPPKDVPVDLHLKAFVGYRSSTQFHVFESTRQLPRFSMYALTSLDPASEPISYVNFTIAERAQRVVVWLGQNFLLPEDTHIQNAPFQVCFTSLRNGGHLHIKIKLSGEITINTDDIDLAGDIIQSMASFFAIEDLQVEADFPVYFEELRKVLVKVDEYHSVHQKLSADMADHSNLIRSLLVGAEDARLMRDMKTMKSRYMELYDLNRDLLNGYKIRCNNHTELLGNLKAVNQAIQRAGRLRVGKPKNQVITACRDAIRSNNINTLFKIMRVGTASS
partner: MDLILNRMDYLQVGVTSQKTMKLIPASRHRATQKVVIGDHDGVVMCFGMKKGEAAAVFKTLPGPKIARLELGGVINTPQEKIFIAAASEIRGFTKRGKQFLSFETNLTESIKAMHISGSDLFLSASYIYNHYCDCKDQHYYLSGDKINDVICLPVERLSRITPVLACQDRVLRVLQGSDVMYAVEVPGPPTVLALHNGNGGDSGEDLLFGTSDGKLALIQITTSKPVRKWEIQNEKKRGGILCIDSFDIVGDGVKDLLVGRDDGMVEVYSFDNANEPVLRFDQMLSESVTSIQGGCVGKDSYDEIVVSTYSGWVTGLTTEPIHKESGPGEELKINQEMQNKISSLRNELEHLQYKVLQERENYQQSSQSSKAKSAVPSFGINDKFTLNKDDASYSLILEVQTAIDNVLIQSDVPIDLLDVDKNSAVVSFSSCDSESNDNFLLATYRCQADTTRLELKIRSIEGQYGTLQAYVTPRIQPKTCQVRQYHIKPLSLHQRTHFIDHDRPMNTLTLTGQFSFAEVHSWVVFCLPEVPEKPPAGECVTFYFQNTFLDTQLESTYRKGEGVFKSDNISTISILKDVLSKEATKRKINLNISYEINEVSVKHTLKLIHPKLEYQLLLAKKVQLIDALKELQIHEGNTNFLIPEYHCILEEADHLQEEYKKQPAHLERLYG

Variants of: B1
Details: with BBS7, Q8IWZ6-2

Q: For S438E, which “effect of a mutation on the interaction” value is on record?
A: with no effect

Q: Which “effect of a mutation on the interaction” value does the source give for E578A here?
A: with no effect

Q: Which “effect of a mutation on the interaction” value does the source give for A678K here?
A: with no effect

Q: With L650K as the variant, how does the “effect of a mutation on the interaction” value read?
A: with no effect

Q: V582E was tested. Which “effect of a mutation on the interaction” value did it give?
A: with no effect

Q: For I411E, which “effect of a mutation on the interaction” value is on record?
A: with no effect

Q: For I503K, which “effect of a mutation on the interaction” value is on record?
A: disrupting interaction strength

Q: For K609E, which “effect of a mutation on the interaction” value is on record?
A: with no effect

Q: For C662K, which “effect of a mutation on the interaction” value is on record?
A: with no effect

Q: With D700A as the variant, how does the “effect of a mutation on the interaction” value read?
A: with no effect

Q: For L402E, which “effect of a mutation on the interaction” value is on record?
A: with no effect

Q: How did the “effect of a mutation on the interaction” value turn out when D560K was run?
A: with no effect

Q: For N651K, which “effect of a mutation on the interaction” value is on record?
A: with no effect

Q: With I376A as the variant, how does the “effect of a mutation on the interaction” value read?
A: with no effect

Q: How did the “effect of a mutation on the interaction” value turn out when N557K was run?
A: with no effect

Q: For P366K, which “effect of a mutation on the interaction” value is on record?
A: with no effect

Q: For I554E, which “effect of a mutation on the interaction” value is on record?
A: with no effect

Q: With K345E as the variant, how does the “effect of a mutation on the interaction” value read?
A: with no effect

Q: How did the “effect of a mutation on the interaction” value turn out when P444A was run?
A: with no effect

Q: Which “effect of a mutation on the interaction” value does the source give for H435A here?
A: with no effect

Q: With D490A as the variant, how does the “effect of a mutation on the interaction” value read?
A: with no effect

Q: Which “effect of a mutation on the interaction” value does the source give for H665E here?
A: with no effect

Q: How did the “effect of a mutation on the interaction” value turn out when V471K was run?
A: with no effect

Q: V471E was tested. Which “effect of a mutation on the interaction” value did it give?
A: with no effect

Q: Which “effect of a mutation on the interaction” value does the source give for V471A here?
A: with no effect

Q: For Q532E, which “effect of a mutation on the interaction” value is on record?
A: with no effect

Q: For I422A, which “effect of a mutation on the interaction” value is on record?
A: with no effect

Q: For A674E, which “effect of a mutation on the interaction” value is on record?
A: with no effect

Q: For E505K, which “effect of a mutation on the interaction” value is on record?
A: with no effect

Q: With Q693K as the variant, how does the “effect of a mutation on the interaction” value read?
A: with no effect

Q: Which “effect of a mutation on the interaction” value does the source give for L387E here?
A: with no effect

Q: L647E was tested. Which “effect of a mutation on the interaction” value did it give?
A: disrupting interaction strength

Q: How did the “effect of a mutation on the interaction” value turn out when G683A was run?
A: with no effect

Q: For I713K, which “effect of a mutation on the interaction” value is on record?
A: with no effect

Q: M637S was tested. Which “effect of a mutation on the interaction” value did it give?
A: disrupting interaction strength

Q: With M637K as the variant, how does the “effect of a mutation on the interaction” value read?
A: with no effect

Q: For Q477E, which “effect of a mutation on the interaction” value is on record?
A: with no effect

Q: Which “effect of a mutation on the interaction” value does the source give for F518L here?
A: disrupting interaction strength

Q: For I660A, which “effect of a mutation on the interaction” value is on record?
A: with no effect

Q: Which “effect of a mutation on the interaction” value does the source give for N354K here?
A: with no effect

Q: How did the “effect of a mutation on the interaction” value turn out when S390K was run?
A: with no effect

Q: For I412A, which “effect of a mutation on the interaction” value is on record?
A: with no effect

Q: Which “effect of a mutation on the interaction” value does the source give for I412E here?
A: with no effect

Q: With I412R as the variant, how does the “effect of a mutation on the interaction” value read?
A: disrupting interaction strength

Q: With V626E as the variant, how does the “effect of a mutation on the interaction” value read?
A: with no effect

Q: With T487R as the variant, how does the “effect of a mutation on the interaction” value read?
A: disrupting interaction strength

Q: For T487A, which “effect of a mutation on the interaction” value is on record?
A: with no effect

Q: With P521K as the variant, how does the “effect of a mutation on the interaction” value read?
A: with no effect

Q: With L349K as the variant, how does the “effect of a mutation on the interaction” value read?
A: with no effect

Q: With S466A as the variant, how does the “effect of a mutation on the interaction” value read?
A: with no effect

Q: Which “effect of a mutation on the interaction” value does the source give for S704E here?
A: with no effect

Q: How did the “effect of a mutation on the interaction” value turn out when V606K was run?
A: with no effect

Q: With L580E as the variant, how does the “effect of a mutation on the interaction” value read?
A: with no effect

Q: How did the “effect of a mutation on the interaction” value turn out when Y463A was run?
A: disrupting interaction strength

Q: How did the “effect of a mutation on the interaction” value turn out when Y463K was run?
A: with no effect

Q: C698K was tested. Which “effect of a mutation on the interaction” value did it give?
A: with no effect

Q: For L538G, which “effect of a mutation on the interaction” value is on record?
A: disrupting interaction strength

Q: With G552E as the variant, how does the “effect of a mutation on the interaction” value read?
A: with no effect

Q: H545K was tested. Which “effect of a mutation on the interaction” value did it give?
A: disrupting interaction strength

Q: Which “effect of a mutation on the interaction” value does the source give for H607A here?
A: disrupting interaction strength

Q: How did the “effect of a mutation on the interaction” value turn out when A379E was run?
A: with no effect

Q: Which “effect of a mutation on the interaction” value does the source give for E362K here?
A: with no effect

Q: S488E was tested. Which “effect of a mutation on the interaction” value did it give?
A: with no effect

Q: For S488R, which “effect of a mutation on the interaction” value is on record?
A: disrupting interaction strength

Q: For Q527A, which “effect of a mutation on the interaction” value is on record?
A: with no effect

Q: With N500A as the variant, how does the “effect of a mutation on the interaction” value read?
A: with no effect

Q: How did the “effect of a mutation on the interaction” value turn out when V430K was run?
A: with no effect

Q: For L563K, which “effect of a mutation on the interaction” value is on record?
A: with no effect

Q: R661A was tested. Which “effect of a mutation on the interaction” value did it give?
A: with no effect

Q: Which “effect of a mutation on the interaction” value does the source give for R339A here?
A: with no effect

Q: R339E was tested. Which “effect of a mutation on the interaction” value did it give?
A: with no effect

Q: For L597E, which “effect of a mutation on the interaction” value is on record?
A: with no effect

Q: For L597A, which “effect of a mutation on the interaction” value is on record?
A: with no effect

Q: Q335K was tested. Which “effect of a mutation on the interaction” value did it give?
A: with no effect

Q: With I707E as the variant, how does the “effect of a mutation on the interaction” value read?
A: with no effect

Q: Which “effect of a mutation on the interaction” value does the source give for P448E here?
A: with no effect

Q: D454E was tested. Which “effect of a mutation on the interaction” value did it give?
A: with no effect

Q: How did the “effect of a mutation on the interaction” value turn out when Y644K was run?
A: with no effect

Q: For Y644A, which “effect of a mutation on the interaction” value is on record?
A: with no effect

Q: T666E was tested. Which “effect of a mutation on the interaction” value did it give?
A: with no effect

Q: S433A was tested. Which “effect of a mutation on the interaction” value did it give?
A: with no effect

Q: How did the “effect of a mutation on the interaction” value turn out when M483E was run?
A: with no effect

Q: For E426K, which “effect of a mutation on the interaction” value is on record?
A: with no effect

Q: For N664K, which “effect of a mutation on the interaction” value is on record?
A: with no effect

Q: For Y484Q, which “effect of a mutation on the interaction” value is on record?
A: disrupting interaction strength

Q: Y484K was tested. Which “effect of a mutation on the interaction” value did it give?
A: with no effect

Q: How did the “effect of a mutation on the interaction” value turn out when Y484S was run?
A: disrupting interaction strength

Q: For K673E, which “effect of a mutation on the interaction” value is on record?
A: with no effect
